From article PMC12660843, “Using phage display for rational engineering of a higher-affinity humanized 3’ phosphohistidine-specific antibody” (Communications Chemistry, 2025)
Changes are numbered by the printed parent chain. Names may count otherwise. *1 amine or outer side, *2 acyl side, *3 side chain or, on linkers, in order; H or OH if unused. Where no end group is shown, it is not given here. [ ]: non-standard residue; d: D form. The star is where a group is joined. 3‑pTza = 3-phosphotriazolyl alanine (also given as 3-phosphoryl-triazolylalanine); 3‑pHis = 3-phosphohistidine, O=C([C@H](Cc1cn(P(=O)(O)O)cn1)N[*:1])[*:2]; Biotin = O=C1N[C@H]2[C@H](CS[C@H]2CCCCC(=O)*)N1; Ahx = NCCCCCC(=O)O

T1: 3-pTza peptide (Biotin-AminocaproicAcid-A.G.A.G.3-pTza.A.G.A.G)
T1 chain: {Biotin-Ahx}-AGAG[3‑pTza]AGAG

T2: 3-pTza peptide (Biotin-AminocaproicAcid-A.G.A.G.3-pTza.A.G.A.G) (synthetic construct)
T2 chain: {Biotin-Ahx}-AGAG[3‑pTza]AGAG

T3: 3-pHis peptide (Biotin-AminocaproicAcid-A.G.A.G.H.A.G.A.G phosphorylated by phosphoramidate)
T3 construct: His-peptide, phosphorylated on His5; the phosphoramidate reaction gives a mixture of non-phosphorylated, 1-pHis, 3-pHis and di-pHis peptide; also called Biotinylated ACLYana-3-pHis; ACLYana-pHis; source: synthetic peptide, phosphorylated with potassium phosphoramidate; not shown: biotin, N-terminal, kept
T3 peptide: {Biotin-Ahx}-AGAG[3‑pHis]AGAG

B1: hSC44.20 IgG (antibody, V domains shown)
VH: EVQLVESGGGLVQPGGSLRLSCTASGFSIDSYGFSWVRQAPGKGLEHIGYLTAGGRAFYASWAKSRSTITRNTNENTVTLKMNSLRAEDTAVYYCAKLGTGSRFAIWGQGTLVTVSS
VL: DIQLTQSPSSLSASVGDRVTITCRASQSVWRNKNVAWYQQKPGKAPKRLIYAIASLYSGVPSRFSGSGSGTDFTLTISSLQPEDFATYYCVGHYGSENDAYYAFGQGTKVEIK
notes: human IgG1, kappa light chain
B2: hSC44.20.N32Y^L IgG (antibody, V domains shown)
VH: B1 VH
VL: B1 VL with N34Y
notes: human IgG1, kappa light chain
B3: hSC44.20.N32F^L IgG (antibody, V domains shown)
VH: B1 VH
VL: B1 VL with N34F
notes: human IgG1, kappa light chain
B4: hSC44 IgG (antibody, V domains shown)
VH: B1 VH with T100S, S102N, R103P, F104V
VL: B1 VL with L4M
B5: rSC44 IgG (antibody, V domains shown)
VH: QSVKESGRGLVQPGGSLTLTCTASGFSIDSYGFSWVRQAPGKGLEHIGYLTAGGRAFYASWAKSRSTITRNTNENTVTLKMTSLTAADTATYFCAKLGSGNPVAIWGPGTLVTVSS
VL: QVLTQTPSFTSAAVGGTVTINCQSSQSVWRNKNLAWYQQKPGQPPKRLIYAIATLDSGVPSRFSGSGSGTQFTLTISDVQCDDAATYYCVGHYGSENDAYYAFGGGTEVVVK
notes: rabbit SC44-8 IgG heavy chain; rabbit IgG constant region; as the light chain of m9; Rabbit IgG; also called SC44-8; rSC44-8; copies: 2 + 2
B6: hSC44.20 IgG (antibody, V domains shown)
VH: B1 VH
VL: B1 VL with L4M
notes: as the heavy chain of m2 with the stated CDR-H3 changes (Kabat numbering); as the light chain of m1; source: Expi293, transfected, purified (CaptoL, SEC); copies: 2 + 2
B7: hSC44.20.N32F^L IgG (antibody, V domains shown)
VH: B1 VH
VL: B1 VL with L4M, N34F
notes: as the heavy chain of m4 (heavy chain of m2 with the stated CDR-H3 changes, Kabat numbering); as the light chain of m1 with N32F in CDR-L1 (Kabat numbering); source: Expi293, transfected, purified (CaptoL, SEC); copies: 2 + 2
B8: rSC44 Fab (Fab, V domains shown)
VH: B5 VH
VL: B5 VL
B9: hSC44.20.N32Y^L Fab (Fab, V domains shown)
VH: B1 VH
VL: B1 VL with L4M, N34Y
B10: hSC44.20 Fab (Fab, V domains shown)
VH: B1 VH
VL: B1 VL with L4M
B11: hSC44 Fab (Fab, V domains shown)
VH: B1 VH with T100S, S102N, R103P, F104V
VL: B1 VL with L4M
B12: hSC44.20.N32F^L Fab (Fab, V domains shown)
VH: B1 VH
VL: B1 VL with L4M, N34F
B13: hSC44.1 IgG (antibody, V domains shown)
VH: B1 VH with R103P, F104I
VL: B1 VL with L4M
B14: hSC44.13 IgG (antibody, V domains shown)
VH: EVQLVESGGGLVQPGGSLRLSCTASGFSIDSYGFSWVRQAPGKGLEHIGYLTAGGRAFYASWAKSRSTITRNTNENTVTLKMNSLRAEDTAVYYCAKLGTGSPVAIWG
VL: B1 VL with L4M
B15: hSC44.22 IgG (antibody, V domains shown)
VH: B14 VH with S102T
VL: B1 VL with L4M
B16: hSC44.31 IgG (antibody, V domains shown)
VH: B1 VH with S102T, R103P
VL: B1 VL with L4M, N34Y
B17: hSC44.28 IgG (antibody, V domains shown)
VH: B14 VH with V104L
VL: B1 VL with L4M, N34F
B18: hSC44.3 IgG (antibody, V domains shown)
VH: B14 VH with L98I, T100S
VL: B1 VL with L4M
B19: hSC44.8 IgG (antibody, V domains shown)
VH: B14 VH with L98I, P103R
VL: B1 VL with L4M
B20: hSC44.20.N32Y^L IgG (antibody, V domains shown)
VH: B1 VH
VL: B1 VL with L4M, N34Y

Target: T1, 3-pTza peptide …
Assay: BLI; biotinylated peptide captured on streptavidin biosensors at 20 nM; IgG in solution at 20-200 nM; Octet HTX; 1x HBS-T, 1% BSA
Settings: both partners purified

koff [s⁻¹] | kon [M⁻¹ s⁻¹] | Kd [nM] | Binder
< 1e-07 | 257000 |  | B1
< 1e-07 | 35100 |  | B2
5.73e-05 | 37300 | 1.54 | B3

Target: T2, 3-pTza peptide …
Assay: BLI
Settings: not given

koff [s⁻¹] | Binder
9.3e-05 | B4

Each binder was assayed against T4, 3-pHis form of the a-subunit of SCS (30 kDa) (Homo sapiens (HEK293T, endogenous), UniProt P53597, 3-phosphohistidine (site not stated)) (assay: immunoblot; HEK293T whole cell lysate, 30 µg, alkaline 12% SDS-PAGE and alkaline blotting at 4 °C; 0.5 µg/mL IgG as primary antibody, 1 h at room temperature; HRP secondary antibody). Settings: one partner purified.
T4 construct: alpha subunit of SCS (succinyl-CoA synthetase), 30 kDa band on the immunoblot; source: endogenous, HEK293T lysate
T4 sequence (P53597 41-346): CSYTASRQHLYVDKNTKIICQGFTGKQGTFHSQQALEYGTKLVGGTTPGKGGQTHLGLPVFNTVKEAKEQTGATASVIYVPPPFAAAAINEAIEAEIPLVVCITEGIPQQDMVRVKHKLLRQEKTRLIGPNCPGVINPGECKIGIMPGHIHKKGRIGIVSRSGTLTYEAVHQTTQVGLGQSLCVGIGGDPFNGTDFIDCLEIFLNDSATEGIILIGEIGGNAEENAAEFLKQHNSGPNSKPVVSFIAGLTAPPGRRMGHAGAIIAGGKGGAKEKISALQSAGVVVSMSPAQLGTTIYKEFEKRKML

binding result | Binder
binds | B5
binds | B6
binds | B7

The binders below were run against T5, 3-pHis form of ACLY (120 kDa) (Homo sapiens (HEK293T, endogenous), UniProt P53396, 3-phosphohistidine (site not stated)) in the same assay as above. Settings: one partner purified.
T5 construct: ACLY (ATP-citrate lyase), 120 kDa band on the immunoblot; source: endogenous, HEK293T lysate
T5 sequence (P53396 whole entry): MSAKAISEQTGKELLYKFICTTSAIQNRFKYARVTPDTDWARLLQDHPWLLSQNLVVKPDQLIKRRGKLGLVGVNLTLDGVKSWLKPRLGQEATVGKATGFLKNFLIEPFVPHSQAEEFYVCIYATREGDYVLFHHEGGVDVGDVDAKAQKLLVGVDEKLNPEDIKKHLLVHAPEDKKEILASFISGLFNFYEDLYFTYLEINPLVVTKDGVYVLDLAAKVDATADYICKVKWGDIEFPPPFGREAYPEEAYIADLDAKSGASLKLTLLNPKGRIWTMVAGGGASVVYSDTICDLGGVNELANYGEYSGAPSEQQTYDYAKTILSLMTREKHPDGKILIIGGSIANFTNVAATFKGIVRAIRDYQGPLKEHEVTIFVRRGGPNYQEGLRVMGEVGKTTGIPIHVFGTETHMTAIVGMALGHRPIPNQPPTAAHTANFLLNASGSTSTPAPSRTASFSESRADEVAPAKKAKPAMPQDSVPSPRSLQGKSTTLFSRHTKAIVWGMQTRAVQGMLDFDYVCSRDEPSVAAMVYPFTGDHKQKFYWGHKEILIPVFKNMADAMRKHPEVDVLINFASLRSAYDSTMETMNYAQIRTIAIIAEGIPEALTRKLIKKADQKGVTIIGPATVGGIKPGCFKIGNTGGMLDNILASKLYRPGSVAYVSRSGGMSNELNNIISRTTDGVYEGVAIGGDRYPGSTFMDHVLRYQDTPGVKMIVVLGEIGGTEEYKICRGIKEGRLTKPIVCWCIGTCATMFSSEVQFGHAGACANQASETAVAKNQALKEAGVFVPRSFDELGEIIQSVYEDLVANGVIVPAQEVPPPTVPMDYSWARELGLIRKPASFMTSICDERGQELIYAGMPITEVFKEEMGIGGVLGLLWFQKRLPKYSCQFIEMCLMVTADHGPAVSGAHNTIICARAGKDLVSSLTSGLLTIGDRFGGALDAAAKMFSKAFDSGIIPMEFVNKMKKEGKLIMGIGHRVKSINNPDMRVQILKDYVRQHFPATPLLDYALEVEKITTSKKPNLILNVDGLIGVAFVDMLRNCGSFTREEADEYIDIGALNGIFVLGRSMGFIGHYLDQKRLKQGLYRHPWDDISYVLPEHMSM

binding result | Binder
binds | B5
binds | B6
binds | B7

Target: T3, 3-pHis peptide …
Assay: BLI; Octet RED96e; biotinylated peptides captured on streptavidin biosensors at 20 nM; Fab in solution, 20-200 nM; 1x HBS-T, 1% BSA
Settings: not given

Kd [nM] | koff [s⁻¹] | kon [M⁻¹ s⁻¹] | Binder
48.5 | 0.00591 | 122000 | B8
5.11 | 0.00066 | 129000 | B9
17.5 | 0.0042 | 240000 | B10
40.5 | 0.00235 | 57900 | B11
6.63 | 0.000697 | 105000 | B12

The binders below were run against 3-pTza peptide (Biotin-AminocaproicAcid-A.G.A.G.3-pTza.A.G.A.G) in the same assay as above. Settings: not given.

Kd [nM] | Binder
1.5 | B11

Each binder was assayed against 3-pTza peptide (Biotin-AminocaproicAcid-A.G.A.G.3-pTza.A.G.A.G) (assay: BLI; biotinylated peptide captured on streptavidin biosensors at 20 nM; IgG in solution at 20-200 nM; Octet HTX; 1x HBS-T, 1% BSA). Settings: not given.

Kd [nM] | koff [s⁻¹] | kon [M⁻¹ s⁻¹] | Binder
0.588 | 8.32e-05 | 141000 | B13
0.405 | 7.37e-05 | 182000 | B14
0.495 | 4.49e-05 | 90600 | B15
2.71 | 3.98e-05 | 14700 | B16
1.21 | 3e-05 | 24900 | B17
0.352 | 1.43e-05 | 40700 | B18
0.185 | 6.66e-05 | 359000 | B19

Target: T3, 3-pHis peptide …
Assay: as above
Settings: both partners purified

koff [s⁻¹] | kon [M⁻¹ s⁻¹] | Kd [nM] | Binder
2.61e-05 | 8880 |  | B2
1.64e-05 | 13900 | 1.68 | B3

Target: T3, 3-pHis peptide …
Assay: BLI; Octet HTX; biotinylated peptides captured on streptavidin biosensors at 20 nM; IgG in solution, 20-200 nM; 1x HBS-T, 1% BSA
Settings: not given

Kd [nM] | Binder
9.5 | B20
1.6 | B7

These binders were tested against 3-pTza peptide (Biotin-AminocaproicAcid-A.G.A.G.3-pTza.A.G.A.G) in the same assay as above. Settings: not given.

Kd [nM] | Binder
< 0.001 | B6
< 0.001 | B20
1.2 | B4
< 1.54 | B7

Target: T3, 3-pHis peptide …
Assay: BLI; biotinylated peptide captured on streptavidin biosensors at 20 nM; IgG in solution at 20-200 nM; Octet HTX; 1x HBS-T, 1% BSA
Settings: both partners purified
Remark: another data set of the same source

Kd [nM] | Binder
21 | B1

Target: 3-pTza peptide (Biotin-AminocaproicAcid-A.G.A.G.3-pTza.A.G.A.G)
Assay: BLI; Octet RED96e; biotinylated peptides captured on streptavidin biosensors at 20 nM; Fab in solution, 20-200 nM; 1x HBS-T, 1% BSA
Settings: not given
Remark: another data set of the same source

Kd [nM] | koff [s⁻¹] | kon [M⁻¹ s⁻¹] | Binder
0.668 | 0.000135 | 203000 | B8
0.83 | 0.000186 | 224000 | B9
0.421 | 0.000103 | 245000 | B10
1.62 | 8.16e-05 | 50600 | B11
0.892 | 0.000177 | 199000 | B12
